Results taken from patent US20050142114A1.

Legend:
[1] = molecular target: CD209 (DC-SIGN) on monocyte-derived dendritic cells (human) (UniProt Q9NNX6); assay: flow cytometry, right shift of the whole histogram vs. control peak (FIG. 1)
[2] = molecular target: CD209 (DC-SIGN) on monocyte-derived dendritic cells (human) (UniProt Q9NNX6); assay: flow cytometry; calcein signal of immunoliposomes relative to FITC signal of the mAb
[3] = molecular target: CD209 (DC-SIGN) on monocyte-derived dendritic cells (human) (UniProt Q9NNX6); assay: flow cytometry, percent of MoDCs positive for calcein after monospecific anti-CD209 protein A immunoliposomes (FIG. 4A)

Chain of UniProt Q9NNX6 (Q9NNX6 whole entry): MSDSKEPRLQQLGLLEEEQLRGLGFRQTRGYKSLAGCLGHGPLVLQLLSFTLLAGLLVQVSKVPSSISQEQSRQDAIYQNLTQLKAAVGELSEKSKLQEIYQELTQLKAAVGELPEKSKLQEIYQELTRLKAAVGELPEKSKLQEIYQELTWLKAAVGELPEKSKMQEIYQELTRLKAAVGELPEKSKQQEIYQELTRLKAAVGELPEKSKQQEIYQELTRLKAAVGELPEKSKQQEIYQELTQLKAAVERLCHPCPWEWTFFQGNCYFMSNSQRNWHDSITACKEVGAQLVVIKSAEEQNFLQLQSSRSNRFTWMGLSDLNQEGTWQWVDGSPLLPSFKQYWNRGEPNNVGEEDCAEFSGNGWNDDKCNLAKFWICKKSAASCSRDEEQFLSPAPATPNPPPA

percent of cells targeted [1]: 100% | TEILS (immunoliposomal net targeting efficacy) [2]: 110% | liposomal targeting efficacy [3]: 83.3%
Substance: CD209-specific mAb derived from clone 120507 (IgG2b), R&D Systems (antibody)
